B1: HN1L (protein, UniProt Q9H910 1-190, looked up)
Jupiter microtubule …: MFQVPDSEGGRAGSRAMKPPGGESSNLFGSPEEATPSSRPNRMASNIFGPTEEPQNIPKRTNPPGGKGSGIFDESTPVQTRQHLNPPGGKTSDIFGSPVTATSRLAHPNKPKDHVFLCEGEEPKSDLKAARSIPAGAEPGEKGSARKAGPAKEQEPMPTVDSHEPRLGPRPRSHNKVLNPPGGKSSISFY
B2: ZNF326 (protein, UniProt Q5BKZ1 1-582, looked up)
DBIRD complex subunit ZNF326: MDFEDDYTHSACRNTYQGFNGMDRDYGPGSYGGMDRDYGHGSYGGQRSMDSYLNQSYGMDNHSGGGGGSRFGPYESYDSRSSLGGRDLYRSGYGFNEPEQSRFGGSYGGRFESSYRNSLDSFGGRNQGGSSWEAPYSRSKLRPGFMEDRGRENYSSYSSFSSPHMKPAPVGSRGRGTPAYPESTFGSRNYDAFGGPSTGRGRGRGHMGDFGSIHRPGIVVDYQNKSTNVTVAAARGIKRKMMQPFNKPSGTFIKKPKLAKPMEKISLSKSPTKTDPKNEEEEKRRIEARREKQRRRREKNSEKYGDGYRMAFTCSFCKFRTFEEKDIELHLESSSHQETLDHIQKQTKFDKVVMEFLHECMVNKFKKTSIRKQQTNNQTEVVKIIEKDVMEGVTVDDHMMKVETVHCSACSVYIPALHSSVQQHLKSPDHIKGKQAYKEQIKRESVLTATSILNNPIVKARYERFVKGENPFEIQDHSQDQQIEGDEEDEEKIDEPIEEEEDEDEEEEAEEVGEVEEVEEVEEVREGGIEGEGNIQGVGEGGEVGVVGEVEGVGEVEEVEELEEETAKEEPADFPVEQPEEN
B3: ZC3HAV1L (protein, UniProt Q96H79 2-300, looked up)
Zinc finger CCCH-type …: AEPTVCSFLTKVLCAHGGRMFLKDLRGHVELSEARLRDVLQRAGPERFLLQEVETQEGLGDAEAEAAAGAVGGGGTSAWRVVAVSSVRLCARYQRGECQACDQLHFCRRHMLGKCPNRDCWSTCTLSHDIHTPVNMQVLKSHGLFGLNENQLRILLLQNDPCLLPEVCLLYNKGEALYGYCNLKDKCNKFHVCKSFVKGECKLQTCKRSHQLIHAASLKLLQDQGLNIPSVVNFQIISTYKHMKLHKMLENTDNSSPSTEHSQGLEKQGVHAAGAAEAGPLASVPAQSAKKPCPVSCEK
B4: EEF1D (protein, UniProt P29692 2-281, looked up)
Elongation factor 1-delta: ATNFLAHEKIWFDKFKYDDAERRFYEQMNGPVAGASRQENGASVILRDIARARENIQKSLAGSSGPGASSGTSGDHGELVVRIASLEVENQSLRGVVQELQQAISKLEARLNVLEKSSPGHRATAPQTQHVSPMRQVEPPAKKPATPAEDDEDDDIDLFGSDNEEEDKEAAQLREERLRQYAEKKAKKPALVAKSSILLDVKPWDDETDMAQLEACVRSIQLDGLVWGASKLVPVGYGIRKLQIQCVVEDDKVGTDLLEEEITKFEEHVQSVDIAAFNKI
B5: KIN (protein, UniProt O60870 1-393, looked up)
DNA/RNA-binding protein KIN17: MGKSDFLTPKAIANRIKSKGLQKLRWYCQMCQKQCRDENGFKCHCMSESHQRQLLLASENPQQFMDYFSEEFRNDFLELLRRRFGTKRVHNNIVYNEYISHREHIHMNATQWETLTDFTKWLGREGLCKVDETPKGWYIQYIDRDPETIRRQLELEKKKKQDLDDEEKTAKFIEEQVRRGLEGKEQEVPTFTELSRENDEEKVTFNLSKGACSSSGATSSKSSTLGPSALKTIGSSASVKRKESSQSSTQSKEKKKKKSALDEIMEIEEEKKRTARTDYWLQPEIIVKIITKKLGEKYHKKKAIVKEVIDKYTAVVKMIDSGDKLKLDQTHLETVIPAPGKRILVLNGGYRGNEGTLESINEKTFSATIVIETGPLKGRRVEGIQYEDISKLA
B6: HNRNPA0 (protein, UniProt Q13151 1-305, looked up)
Heterogeneous nuclear …: MENSQLCKLFIGGLNVQTSESGLRGHFEAFGTLTDCVVVVNPQTKRSRCFGFVTYSNVEEADAAMAASPHAVDGNTVELKRAVSREDSARPGAHAKVKKLFVGGLKGDVAEGDLIEHFSQFGTVEKAEIIADKQSGKKRGFGFVYFQNHDAADKAAVVKFHPIQGHRVEVKKAVPKEDIYSGGGGGGSRSSRGGRGGRGRGGGRDQNGLSKGGGGGYNSYGGYGGGGGGGYNAYGGGGGGSSYGGSDYGNGFGGFGSYSQHQSSYGPMKSGGGGGGGGSSWGGRSNSGPYRGGYGGGGGYGGSSF
B7: SRP19 (protein, UniProt P09132 1-144, looked up)
Signal recognition particle …: MACAAARSPADQDRFICIYPAYLNNKKTIAEGRRIPISKAVENPTATEIQDVCSAVGLNVFLEKNKMYSREWNRDVQYRGRVRVQLKQEDGSLCLVQFPSRKSVMLYAAEMIPKLKTRTQKTGGADQSLQQGEGSKKGKGKKKK

Key:
[1] = system: 3×MBT domain of L3MBTL1; experiment: Triple SILAC pull-down, 3xMBT/3xMBTD355N ratio (cytoplasmic, nuclear and chromatin fractions of 293T cells); type: binding, human; conditions: SILAC ratio, pull-down 3xMBT vs 3xMBTD355N; for 3xMBT/D355N UNC Heavy: experiment with UNC0638 in heavy SILAC media; for 3xMBT/D355N UNC Light: experiment with UNC0638 in light SILAC media;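 as to all read-outs here: proteins quantified with MaxQuant, requiring at least two unique peptides and quantification in both label directions, normalized to the mean of proteins from a digested loading control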
[2] = target: T1, G9a and GLP (Homo sapiens, UniProt Q96KQ7+Q9H9B1); experiment: Triple SILAC pull-down after UNC0638 treatment of 293T cells, DMSO/UNC0638 ratio of protein captured by 3×MBT; type: cell-based; design: endogenous in cells; host or cells: HEK 293T; conditions: for Relative to UNC0638 UNC Heavy / Relative to UNC0638 UNC Light: SILAC ratio DMSO/UNC0638 of protein pulled down with 3xMBT; for Relative to UNC0638 UNC Heavy: UNC0638 in heavy SILAC media; for Relative to UNC0638 UNC Light: UNC0638 in light SILAC media; for Relative to UNC0638 Average: average of UNC Light and UNC Heavy experiments;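 as to all read-outs here: mass spectrometry (Q-Exactive) SILAC quantitation, DMSO/UNC0638 ratio computed after subtracting 3×MBTD355N mutant pull-down background, only proteins with at least twofold 3×MBT over mutant signal considered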
T1 sequence (Q96KQ7 2-1210 limits assumed): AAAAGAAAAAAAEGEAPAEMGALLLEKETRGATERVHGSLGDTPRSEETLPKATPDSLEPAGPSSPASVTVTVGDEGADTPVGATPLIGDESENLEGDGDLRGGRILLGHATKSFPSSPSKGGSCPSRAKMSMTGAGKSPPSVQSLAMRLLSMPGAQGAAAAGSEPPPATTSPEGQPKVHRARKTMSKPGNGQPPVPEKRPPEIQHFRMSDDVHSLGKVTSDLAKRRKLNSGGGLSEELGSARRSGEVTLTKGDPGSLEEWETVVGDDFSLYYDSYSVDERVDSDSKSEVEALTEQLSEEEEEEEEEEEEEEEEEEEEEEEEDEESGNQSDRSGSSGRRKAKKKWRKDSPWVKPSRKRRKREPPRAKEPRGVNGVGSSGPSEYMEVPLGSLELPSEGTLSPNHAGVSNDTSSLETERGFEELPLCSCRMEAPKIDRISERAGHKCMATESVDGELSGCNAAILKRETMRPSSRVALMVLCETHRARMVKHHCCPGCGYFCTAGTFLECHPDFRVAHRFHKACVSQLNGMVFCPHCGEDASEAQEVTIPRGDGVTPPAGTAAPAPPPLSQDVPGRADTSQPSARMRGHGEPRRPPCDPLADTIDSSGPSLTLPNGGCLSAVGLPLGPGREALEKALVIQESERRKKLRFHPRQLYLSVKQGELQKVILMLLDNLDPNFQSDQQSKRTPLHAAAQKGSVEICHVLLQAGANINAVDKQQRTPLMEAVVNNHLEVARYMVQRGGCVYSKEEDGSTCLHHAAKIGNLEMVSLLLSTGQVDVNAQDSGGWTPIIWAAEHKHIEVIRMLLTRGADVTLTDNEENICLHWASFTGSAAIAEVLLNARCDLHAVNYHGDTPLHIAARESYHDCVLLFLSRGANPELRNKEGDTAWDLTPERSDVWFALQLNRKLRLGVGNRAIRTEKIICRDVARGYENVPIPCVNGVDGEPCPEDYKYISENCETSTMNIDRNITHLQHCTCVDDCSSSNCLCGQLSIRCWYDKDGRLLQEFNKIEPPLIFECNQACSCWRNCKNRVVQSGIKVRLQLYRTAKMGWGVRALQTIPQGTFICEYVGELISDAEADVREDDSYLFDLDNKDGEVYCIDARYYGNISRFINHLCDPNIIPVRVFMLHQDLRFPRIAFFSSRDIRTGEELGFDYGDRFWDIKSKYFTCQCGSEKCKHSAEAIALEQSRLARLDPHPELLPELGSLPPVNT
T1 sequence (Q9H9B1 2-1298 limits assumed): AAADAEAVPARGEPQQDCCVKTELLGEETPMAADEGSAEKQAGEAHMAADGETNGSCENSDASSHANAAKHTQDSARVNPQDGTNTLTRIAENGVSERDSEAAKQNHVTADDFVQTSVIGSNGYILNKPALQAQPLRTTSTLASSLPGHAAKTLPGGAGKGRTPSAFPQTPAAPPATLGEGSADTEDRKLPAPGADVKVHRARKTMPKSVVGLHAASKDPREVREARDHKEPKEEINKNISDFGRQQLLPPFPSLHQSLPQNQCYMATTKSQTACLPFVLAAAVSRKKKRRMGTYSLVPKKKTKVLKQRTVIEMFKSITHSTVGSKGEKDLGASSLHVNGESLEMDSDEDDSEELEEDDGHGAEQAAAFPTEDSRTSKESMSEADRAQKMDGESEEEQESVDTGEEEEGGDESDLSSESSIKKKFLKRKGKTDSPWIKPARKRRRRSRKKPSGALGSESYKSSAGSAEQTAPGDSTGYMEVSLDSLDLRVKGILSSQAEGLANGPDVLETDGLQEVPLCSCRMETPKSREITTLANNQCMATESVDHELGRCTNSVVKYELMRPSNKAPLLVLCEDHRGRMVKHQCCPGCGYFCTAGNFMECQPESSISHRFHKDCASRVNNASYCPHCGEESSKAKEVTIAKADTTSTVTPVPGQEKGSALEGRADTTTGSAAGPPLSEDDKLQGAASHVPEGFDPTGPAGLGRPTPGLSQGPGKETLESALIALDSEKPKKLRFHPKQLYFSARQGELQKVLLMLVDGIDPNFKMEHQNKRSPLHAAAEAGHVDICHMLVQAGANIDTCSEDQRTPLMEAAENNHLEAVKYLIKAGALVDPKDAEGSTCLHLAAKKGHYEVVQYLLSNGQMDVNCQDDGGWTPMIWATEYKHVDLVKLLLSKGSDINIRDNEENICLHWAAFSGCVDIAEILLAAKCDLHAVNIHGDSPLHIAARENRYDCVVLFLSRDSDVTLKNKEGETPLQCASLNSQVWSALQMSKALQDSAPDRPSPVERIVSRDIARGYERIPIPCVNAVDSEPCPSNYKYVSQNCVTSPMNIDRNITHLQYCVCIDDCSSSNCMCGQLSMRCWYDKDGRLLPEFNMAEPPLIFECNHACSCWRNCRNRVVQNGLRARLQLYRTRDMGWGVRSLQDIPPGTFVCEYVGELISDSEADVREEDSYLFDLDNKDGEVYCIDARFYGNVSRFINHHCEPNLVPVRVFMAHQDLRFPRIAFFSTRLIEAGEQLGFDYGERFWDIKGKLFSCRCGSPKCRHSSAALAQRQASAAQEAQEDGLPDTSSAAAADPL

Molecule | 3xMBT/D355N UNC Heavy [1] | 3xMBT/D355N UNC Light [1] | Relative to UNC0638 UNC Heavy [2] | Relative to UNC0638 UNC Light [2] | Relative to UNC0638 Average [2] | Candidate G9a/GLP target ([2]; reduced association with 3xMBT after UNC0638 treatment)
B1 | 2.73 log base 2 | 3.57 log base 2 | 0.17 log base 2 | 1.22 log base 2 | 0.70 log base 2 | ✓
B2 | 3.01 log base 2 | 6.59 log base 2 | −0.02 log base 2 | 0.33 log base 2 | 0.15 log base 2 | 
B3 | 1.71 log base 2 | 2.00 log base 2 | 0.14 log base 2 | 0.16 log base 2 | 0.15 log base 2 | 
B4 | 3.34 log base 2 | 3.56 log base 2 | 0.11 log base 2 | 0.20 log base 2 | 0.15 log base 2 | 
B5 | 2.85 log base 2 | 2.11 log base 2 | 0.35 log base 2 | −0.04 log base 2 | 0.15 log base 2 | 
B6 | 2.94 log base 2 | 3.80 log base 2 | 0.02 log base 2 | 0.28 log base 2 | 0.15 log base 2 | 
B7 | 1.88 log base 2 | 2.14 log base 2 | −0.08 log base 2 | 0.38 log base 2 | 0.15 log base 2 | 

Source: patent US20140274782A1, “AFFINITY REAGENTS AND METHODS FOR DETECTION, PURIFICATION, AND PROTEOMIC ANALYSIS OF METHYLATED PROTEINS” (The Board of Trustees of the Leland Stanford Junior …, priority 2013, published 2014)
